Source: paper PMC11629141

Experiments:
[1] = target: 6G11 (BI‐1206), full‐length antibody containing the PGLALA Fc mutations (human); assay: ELISA; 6G11 coated (5 µg/mL, MaxiSorp, overnight 4°C); scFv 500 to 0.19 nM, 1 h RT; detection with StrepTactin-HRP
[2] = target: 6G11 (BI‐1206), full‐length antibody containing the PGLALA Fc mutations (human); assay: BLI; 6G11 (5 µg/mL) loaded on Protein A tips; original or mutated S2B scFv 500-7.8 nM in 1:2 dilutions; association and dissociation 180 s each

6G11 (BI‐1206), full‐length antibody containing the PGLALA Fc mutations (human), sequence (heavy, as listed by the source, chain 1 of 2): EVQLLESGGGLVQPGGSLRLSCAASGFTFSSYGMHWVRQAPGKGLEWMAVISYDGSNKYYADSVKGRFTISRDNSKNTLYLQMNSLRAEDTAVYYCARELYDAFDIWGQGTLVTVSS
6G11 (BI‐1206), full‐length antibody containing the PGLALA Fc mutations (human), sequence (light, as listed by the source, chain 2 of 2): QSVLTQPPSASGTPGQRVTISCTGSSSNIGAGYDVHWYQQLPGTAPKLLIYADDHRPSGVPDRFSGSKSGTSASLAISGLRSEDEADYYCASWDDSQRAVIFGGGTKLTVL

| Binder | EC50 [1] | fold decrease in affinity against the original S2B [2] | also measured |
| --- | --- | --- | --- |
| S2B R101A scFv, solitary (scFv, V domains shown) VH: AVTLDESGGGLQTPGGGLSLVCKASGFTFSSYSMVWVRQAPSKRLEWVAGIYSSATWTYYAPAVKGRATISRDNGQSTVRLQLNDLRAEDTGTYFCAKTSASGWTAYSASAIDAWGHGTEVIV VL: ALTQPSSVSANPGETVKITCSGGSSYYGWYQQKSPGSAPVTVIYSNDKRPSDIPSRFSGSTSGSTATLTITGVQADDEAVYFCGGYDSNIHGGIFGAGTTLTVL | – | 6 fold | – |
| S2B W104A scFv, solitary (scFv, V domains shown) VH: AVTLDESGGGLQTPGGGLSLVCKASGFTFSSYSMVWVRQAPSKRLEWVAGIYSSATWTYYAPAVKGRATISRDNGQSTVRLQLNDLRAEDTGTYFCAKTSRSGATAYSASAIDAWGHGTEVIV VL: ALTQPSSVSANPGETVKITCSGGSSYYGWYQQKSPGSAPVTVIYSNDKRPSDIPSRFSGSTSGSTATLTITGVQADDEAVYFCGGYDSNIHGGIFGAGTTLTVL | – | 10 fold | – |
| S2B Y52A scFv, solitary (scFv, V domains shown) VH: AVTLDESGGGLQTPGGGLSLVCKASGFTFSSYSMVWVRQAPSKRLEWVAGIASSATWTYYAPAVKGRATISRDNGQSTVRLQLNDLRAEDTGTYFCAKTSRSGWTAYSASAIDAWGHGTEVIV VL: ALTQPSSVSANPGETVKITCSGGSSYYGWYQQKSPGSAPVTVIYSNDKRPSDIPSRFSGSTSGSTATLTITGVQADDEAVYFCGGYDSNIHGGIFGAGTTLTVL | – | – | fold decrease in binding against the original S2B [2]: 4 fold |

Second part, led by results:

| EC50 [1] | fold decrease in affinity against the original S2B [2] | Binder | also measured |
| --- | --- | --- | --- |
| 3.9 nM | – | S2N scFv (non‐blocking anti‐6G11 scFv clone 2), solitary (scFv, V domains shown) VH: AVTLDESGGGLQTPGGGLSLVCKASGFSFSDRGMQWVRQAPGKGLEWVAGIDDDDNNTWYATAVKGRATISRDNGQSTVRLQLNSLRAEDTGTYYCAKTPTSYYWGAAEIDAWGHGTEVIV VL: ALTQPSSVSANPGETVKITCSGSSGSYGWYQQKAPGSAPVTVIYDNNNRPSNIPSRFSGSLSGSTNTLTITGVQADDEAVYFCGSYEGSSYVGIFGAGTTLTVL | – |
| 28.7 nM | – | S2B scFv (blocking anti‐6G11 scFv clone 2), solitary (scFv, V domains shown) VH: AVTLDESGGGLQTPGGGLSLVCKASGFTFSSYSMVWVRQAPSKRLEWVAGIYSSATWTYYAPAVKGRATISRDNGQSTVRLQLNDLRAEDTGTYFCAKTSRSGWTAYSASAIDAWGHGTEVIV VL: ALTQPSSVSANPGETVKITCSGGSSYYGWYQQKSPGSAPVTVIYSNDKRPSDIPSRFSGSTSGSTATLTITGVQADDEAVYFCGGYDSNIHGGIFGAGTTLTVL | – |
